In assay [1] the target is T1, His-SEB蛋白 (Staphylococcus aureus, UniProt P01552 28-266).
T1 sequence: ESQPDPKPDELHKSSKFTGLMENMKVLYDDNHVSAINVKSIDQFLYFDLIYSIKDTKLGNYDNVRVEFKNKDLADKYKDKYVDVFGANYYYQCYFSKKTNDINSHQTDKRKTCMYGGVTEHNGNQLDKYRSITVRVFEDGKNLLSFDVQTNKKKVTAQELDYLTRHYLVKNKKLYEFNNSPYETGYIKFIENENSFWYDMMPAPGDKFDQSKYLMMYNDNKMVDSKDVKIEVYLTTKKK

In assay [2] the target is T1, His-SEB蛋白. This is another data set of the same source.

The record followed here is patent CN111333724A (INST MILITARY MEDICINE ACADEMY MILITARY SCIENCES PLA, dated 2020).

A word on the EC50: it is the concentration needed to bring the measured effect to its halfway point. Low readings indicate an effect from little substance, high ones a need for much substance. One may read the Kd as a measure of binding affinity in units of concentration. Low readings indicate higher affinity, high ones lower affinity. One may read the koff as the first-order rate constant of dissociation. As a reminder, the kon is the second-order rate constant of association. Lower therefore signals slow association.

B1: YG11-1抗体 (antibody, V domains shown)
VH: QVQLVESGGGVVQPGRSLRLSCAASGFSLSDHAVHWVRQAPGKGLEWVALISYDGSDKYYKDSVKGRFTISRDNPKNTLYLQMTSLKPEDTAVYYCARQGGNKNINYFFQYLDVWGQGTMVTVSS
VL: DIVMTQTPSSLSASVGDRVNISCRASQTISNHLNWYLQKPGKAPKLLIYDASSLESGVPSRFSGSGSGTDFTLTISSLQPEDFATYYCQQFINYPPTFGPGTKLEIKR
In the assay with His-SEB蛋白 [1], B1 gave an EC50 of 0.013 µg/mL. In the assay with His-SEB蛋白 [2], this molecule had a Kd of 16.6 nM, a koff of 0.0169 s⁻¹ and a kon of 1.02e+06 M⁻¹ s⁻¹.
